US5882644A, “Monoclonal antibodies specific for the platelet derived growth factor β receptor and methods of use thereof” (Protein Design Labs, Inc., priority 1996, dated 1999)
Residue numbers refer to the chain shown, from its start. “Also recorded” adds a separate entry of the source.

B1: HuM4TS.11: humanized muM4TS.11, human III-2R framework, gamma4 constant region; SEQ ID NOS:14 and 16 (antibody, V domains shown)
VL: METDTLLLWVLLLWVPGSTGDIQMTQSPSSLSASVGDRVTITCRASESVDSYGNSFMHWYQQKPGKAPKLLIYRASNLESGIPSRFSGSGSRTDFTLTISSLQPEDVATYYCQQSNEDPPTFGQGTKVEIK
VH: MGWSWIFLFLLSGTAGVHSQVQLVQSGAEVKKPGASVKVSCKASGYTFTNCWMHWVRQAPGQGLEWIGYINPTTGYSEYNQNFKDKATITADKSTSTAYMELSSLRSEDTAVYYCTSNYGHYDWFGNWGQGTLVT
B2: muM4TS.22: murine monoclonal antibody to PDGF-R β, variable regions SEQ ID NOS:2 and 4; epitope in third extracellular domain (antibody, V domains shown)
VL: MRVLAELLGLLLFCFLGVRCDIQMNQSPSSLSASLGDTITITCHASQNINVWLSWYQRKPGNIPKLLIYKASNLHTGVPSRFSGSGSGTGFTLTISSLQPEDIATYYCQQGQSFPFTFGSGTKLEIK
VH: MAVLALLLCLVTFPSCALSQVQLKESGPGLVAPSQSLSITCTVSGFSLTNYAINWVRQPPGQGLEWLGIIWTGGGTSYNSALKSRLSISKDNSKSQVFLKMNSLQTDDTARYYCARTGTRGYFFDYWGQGTTLTVSS
B3: HuM4TS.22: humanized muM4TS.22, human IC4 framework, gamma4 constant region; SEQ ID NOS:6 and 8 (antibody, V domains shown)
VL: B2 VL with N25T, L35V, T38R, I39V, R58Q, N62K, I63A, S120G, L124V
VH: MAVLALLLCLVTFPSCALSQVQLQESGPGLVKPSETLSLTCTVSGFSLTNYAINWVRQPPGKGLEWLGIIWTGGGTSYNSALKSRLTISKDTSKNQVSLKLSSVTAADTAVYYCARTGTRGYFFDYWGQGTLVTVSS

Experiments:
PDGF-R β [1] = assay: Competition with 125I-labeled murine antibody tracer on Sp2/0 PDGF-R β transfectant cells; format: binding, human; settings: Sp2/0 PDGF-R β transfectants; for binding affinity Ka: calculated from competitive binding data
Method: To assess the ability of HuM4TS.22 to compete with muM4TS.22 for receptor binding, increasing concentrations of the two antibodies were respectively incubated on ice for one hour with Sp2/0 PDGF-R β transfectant cells and a fixed amount of tracer ^125 I-labeled muAb. The sample tubes were processed as in the blocking experiment just described.
To assess the ability of HuM4TS.11 to compete with the muAb for receptor binding, increasing concentrations of the two antibodies were respectively incubated on ice for one hour with Sp2/0 PDGF-R β transfectant cells and a fixed amount of tracer ^125 I-labeled M4TS.11. The sample tubes were processed as in the blocking experiment described. […] The binding affinities calculated from the data were: Ka =5×10^8 M^-1 for the muAb and 3×10^7 M^-1 for the HuAb.

PDGF-R β [2] = assay: Competitive binding with 125I-PDGF BB on transfectant cells expressing PDGF-R β; design: species or system human; settings: 4° C.
Method: To determine the ability of muM4TS.11 and muM4TS.22 to block binding of PDGF BB to PDGF-R β, the following competitive binding experiments were performed. Transfectant cells expressing PDGF-R β were harvested, washed twice with cold DMEM, and resuspended at 10^6 cells/ml in DMEM. The assay was carried out in triplicate by incubating 100 μl of the cell suspension with either: 1) no antibody (to determine total binding); 2) varying concentrations of antibody; or 3) 100 ng cold PDGF BB (to saturate specific binding sites and determine non-specific binding) for 15 minutes at 4° C. Each sample received 1.0 ng ^125 I-labeled PDGF BB, and was incubated for an additional 60 min at 4° C. Unbound ^125 I-labeled PDGF BB was separated from that bound to the cell by layering the sample over a mixture of 80% dibutylphthalate, 20% olive oil in a microfuge tube, and microfuging briefly to pellet the cells through the oil mixture. The tubes were placed in dry ice to freeze the contents, the tip of the tube containing the cell pellet was cut off into a vial, and radioactivity was determined in a gamma counter.
To assess the ability of HuM4TS.22 to block the binding of PDGF BB to its receptor, competitive binding experiments of HuM4TS.22 with ^125 I-PDGF BB were performed according to the method described in Example 3.
To assess the ability of muM4TS.11 and HuM4TS.11 to block the binding of PDGF BB to the PDGF β receptor, competitive binding experiments of these antibodies with ^125 I-PDGF BB were performed according to the method described in Example 3.

PDGF-R β [3] = assay: Flow cytometry (FACS) staining of Sp2/0 transfectant cells expressing PDGF-R β; format: binding, human; settings: 50 ng antibody; vs untransfected Sp2/0 cells
Method: The cells were washed with cold PBS, incubated for an additional 30 minutes with FITC-labeled goat-anti-human Ig (Tago Immunologicals) and analyzed by flow cytometry (FACS).
The cells were washed with cold PBS, incubated for an additional 30 minutes with FITC-labeled goat-anti-human Ig (Tago Immunologicals) and analyzed by flow cytometry (FACS). […] Neither an irrelevant control antibody nor the FITC-labeled goat antibody alone stained either cell type.

[4] = system: CHO transfectant cell line expressing PDGF-R β (CHO C4); assay: Inhibition of PDGF BB-induced proliferation (3H-thymidine) of CHO C4 cells; format: cell-based, Chinese hamster; settings: for inhibition of PDGF BB-induced proliferation: 50 ng/ml PDGF BB, sufficient antibody concentration
Method: To determine the ability of muM4TS.11 and muM4TS.22 to block PDGF-mediated proliferation, a CHO transfectant cell line expressing PDGF-R β (CHO C4) was generated, as described above. Proliferation of this line, as measured by incorporation of ^3 H-thymidine by DNA synthesis, is stimulated several-fold by PDGF BB. The CHO PDGF-R β transfectants were plated in a 96-well tissue culture plate at about 50,000 cells/well in Ham's F-12+10% FCS and incubated for 1-2 days. The medium was removed, and the cells were washed once with serum-free medium (Ham's F-12+1 mg/ml BSA) and incubated in this media for 1-2 days to put them in a quiescent state. The appropriate amount of antibody in serum-free medium was added, and after 1-3 hours, 50 ng/ml PDGF BB was added. After overnight incubation, 1 μCi ^3 H-thymidine was added, and after a final 4 hour incubation, the cells were harvested using a PHD cell harvester (Cambridge Technology) and analyzed with a scintillation counter.

[5] = system: PDGF-R β deletion fusion proteins; assay: ELISA epitope mapping with PDGF-R β deletion fusion proteins; format: binding, human; settings: for binding to protein D5 (fifth domain only): separate experiment
From the text: To localize the binding sites of the M4TS antibodies on the PDGF-R, a series of PDGF-R β deletion mutants, each consisting of one or more adjacent domains of the extracellular portion of the receptor, was constructed by standard methods including PCR. The deletion constructs were each cloned into an expression plasmid (FIG. 13A) where they were fused to the constant region of the human lambda-1 immunoglobulin light chain, to facilitate detection in ELISA. The constructs were as follows (see FIG. 13B):
These PDGF-R β deletion fusion proteins were transiently expressed, by transfecting 10 μg of the respective expression plasmids into approximately 10^7 S194 mouse myeloma cells (ATCC TIB 19) using the DEAE-dextran method in accordance with the method described by Queen et al. (1984) Mol. Cell. Biol. 4:1042. After the transfected cells had died (4-5 days) and been removed by centrifugation, the culture supernatants containing the PDGF-R β deletion proteins were used in ELISA assays, 100 μl/well. First, the relative levels of the various PDGF-R β deletion proteins were measured in an ELISA where the plate was coated with goat anti-human lambda antibody (Tago) and the proteins detected with HRP-conjugated goat anti-human lambda antibody. […] To determine the ability of the antibodies to bind to each deletion protein, an ELISA was performed in which goat anti-human lambda antibody was used to coat the plate, followed by the cell supernatant and then 0.1 μg of the appropriate antibody, and then bound antibody detected with HRP-conjugated goat-anti-mouse Ig or goat-anti-human Ig antibody as appropriate (Tago). As a positive control, purified soluble PDGF-R β (Example 1) was coated directly on certain wells of the plate (denoted D1-5 in FIG. 14).

[6] = system: PDGF-R β expressed on the cell membrane; assay: Flow cytometry binding to CHO PDGF-R β transfectant cells; design: species or system human; settings: 0.1-1 μg/ml antibody; CHO PDGF-R β transfectants vs untransfected CHO
Method: The cells were washed once in cold PBS and resuspended in 50 μl of PBS containing 10 μg/ml FITC-conjugated goat anti-mouse IgG and incubated for 30 min. After another wash, the cells were fixed by resuspension in 0.25 ml of paraformaldehyde in PBS, and analyzed for fluorescence by flow cytometry on a FACScan (Becton Dickinson).

[7] = system: human primary fibroblast cell line AG1523B; assay: Inhibition of PDGF BB-stimulated proliferation of AG1523B fibroblasts; format: cell-based; settings: 300 ng/ml PDGF BB

Row | Molecule | competition with labeled murine antibody for receptor binding / binding affinity, in words (PDGF-R β [1]) | binding affinity Ka (PDGF-R β [1]) | blocking of 125I-PDGF BB binding to PDGF-R β (PDGF-R β [2]) | FACS staining of Sp2/0 PDGF-R β transfectant cells (PDGF-R β [3]) | inhibition of PDGF-mediated proliferation compared with another antibody [4] | inhibition of PDGF BB-induced proliferation [4] | binding to deletion proteins containing only first through third domains ([5]; 0.1 μg antibody) | binding to protein D1-4 ([5]; 0.1 μg antibody) | binding to protein D5 (fifth domain only) [5] | specific binding to membrane PDGF-R β by flow cytometry [6] | inhibition of stimulation of proliferation by PDGF BB [7] | binding to deletion proteins containing only first through second domains ([5]; 0.1 μg antibody) | binding to protein D1-3 ([5]; 0.1 μg antibody) | binding to protein D3 (third domain only) ([5]; 0.1 μg antibody)
1 | B1 | competed less well than muM4TS.11 | 3e+07 M⁻¹ | neither muM4TS.11 nor HuM4TS.11 were able to inhibit binding of PDGF BB to its receptor | stained the transfectant cells but did not stain untransfected Sp2/0 cells at all | nearly as well as muM4TS.11; also recorded: about equally well | almost completely inhibited the stimulation of proliferation by PDGF BB | do not bind | do bind to protein D1-4 | none of muM4TS.11 and HuM4TS.11, muM4TS.22 and HuM4TS.22 bound to it |  |  |  |  | 
2 | B2 | competed with equal efficiencies | 2.6e+08 M⁻¹ | competitively blocked binding of PDGF BB to PDGF-R β; also recorded: did have the ability to block binding of PDGF BB to PDGF-R β |  |  | completely inhibited proliferation of the cells induced by PDGF BB; also recorded: almost completely inhibited the stimulation of proliferation by PDGF BB |  |  | none of muM4TS.11 and HuM4TS.11, muM4TS.22 and HuM4TS.22 bound to it | specifically bound to CHO PDGF-R β transfectant cells but not to untransfected CHO cells | effectively inhibited the stimulation of proliferation by PDGF BB | do not bind | do bind to protein D1-3 | bind to the protein D3
3 | B3 | competed with equal efficiencies | 4e+08 M⁻¹ | reduced the binding of radiolabelled PDGF BB ligand to the PDGF-R β transfectant cells to the non-specific level; also recorded: did have the ability to block binding of PDGF BB to PDGF-R β | stained the transfectant cells but did not stain untransfected Sp2/0 cells at all | about equally as well as muM4TS.22 | almost completely inhibited the stimulation of proliferation by PDGF BB |  |  | none of muM4TS.11 and HuM4TS.11, muM4TS.22 and HuM4TS.22 bound to it |  |  | do not bind | do bind to protein D1-3 | bind to the protein D3
